Results reported in FireProtDB (doi:10.1074/jbc.m111.277210).
Values joined by “and” are separate entries in the source; they are usually repeats but may differ in a detail not shown here. Equal values may be shown once.

B1: Q67A, Q72SM7 (parent)
chain: MKKLSILAISVALFASITACGAFGGLPSLKSSFVLSEDTIPGTNETVKTLLPYGSVINYYGYVKPGQAPDGLVDGNKKAYYLYVWIPAVIAEMGVRMISPTGEIGEPGDGDLVSDAFKAATPEEKSMPHWFDTWIRVERMSAIMPDQIAKAAKAKPVQKLDDDDDGDDTYKEERHNKYNSLTRIKIPNPPKSFDDLKNIDTKKLLVRGLYRISFTTYKPGEVKGSFVASVGLLFPPGIPGVSPLIHSNPEELQKQAIAAEESLKKAASDATK

Variants of: B1
Conditions: Leptospira interrogans serogroup Icterohaemorrhagiae serovar copenhageni (strain Fiocruz L1-130); pH 8; Thermal; CD; Tris-HCl; KCl; structure 3FRL; whole UniProt chain shown

Variant	change of melting temperature, mutant - wild type (higher = more stable)	Tm
MKKLSILAISVALFASITACGAFGGLPSLKSSFVLSEDTIPGTNETVKTLLPYGSVINYYGYVKPGAAPDGLVDGNKKAYYLYVWIPAVIAEMGVRMISPTGEIGEPGDGDLVSDAFKAATPEEKSMPHWFDTWIRVERMSAIMPDQIAKAAKAKPVQKLDDDDDGDDTYKEERHNKYNSLTRIKIPNPPKSFDDLKNIDTKKLLVRGLYRISFTTYKPGEVKGSFVASVGLLFPPGIPGVSPLIHSNPEELQKQAIAAEESLKKAASDATK [Q67A]	0 °C	
MKKLSILAISVALFASITACGAFGGLPSLKSSFVLSEDTIPGTNETVKTLLPYGSVINYYGYVKPGQAPDGLVDGNKKAYYLYVWIPAVIAEMGVRMISPTGEIGEPGDGDLVSDAFKAATPEEKSMPHWFDTWIRVERMSAIMPDQIAKAAKAKPVQKLDDAAAAAATYKEERHNKYNSLTRIKIPNPPKSFDDLKNIDTKKLLVRGLYRISFTTYKPGEVKGSFVASVGLLFPPGIPGVSPLIHSNPEELQKQAIAAEESLKKAASDATK [D163A D164A D165A G166A D167A D168A]		51 °C and 52 °C
MKKLSILAISVALFASITACGAFGGLPSLKSSFVLSEDTIPGTNETVKTLLPYGSVINYYGYVKPGQAPDGLVDGNKKAYYLYVWIPAVIAEMGVRMISPTGEIGEPGDGDLVSDAFKAATPEEKSMPHWFDTWIRVERMSAIMPDQIAKAAKAKPVQKLDDDDDGDDTYKEERHNKYNSLTRIKIPNPPKSFDDLKNIDTKKLLVRGLYRISFTTYKPGEVKGSFVASVGLLFPPGIPGVSPLIHANPEELQKQAIAAEESLKKAASDATK [S247A]	0 °C and -1 °C	
